Test results as given in the DeepSol protein solubility set.

Experiment: soluble on expression in E. coli; label from the status in PepcDB or PDB records

Sequence	soluble on expression in E. coli
MKSPAPSRPQKMALIPACIFLCFAALSVQAEETPVTPQPPDILLGPLFNDVQNAKLFPDQKTFADAVPNSDPLMILADYRMQQNQSGFDLRHFVNVNFTLPKEGEKYVPPEGQSLREHIDGLWPVLTRSTENTEKWDSLLPLPEPYVVPGGRFREVYYWDSYFTMLGLAESGHWDKVADMVANFAHEIDTYGHIPNGNRSYYLSRSQPPFFALMVELLAQHEGDAALKQYLPQMQKEYAYWMDGVENLQAGQQEKRVVKLQDGTLLNRYWDDRDTPRPESWVEDIATAKSNPNRPATEIYRDLRSAAASGWDFSSRWMDNPQQLNTLRTTSIVPVDLNSLMFKMEKILARASKAAGDNAMANQYETLANARQKGIEKYLWNDQQGWYADYDLKSHKVRNQLTAAALFPLYVNAAAKDRANKMATATKTHLLQPGGLNTTSVKSGQQWDAPNGWAPLQWVATEGLQNYGQKEVAMDISWHFLTNVQHTYDREKKLVEKYDVSTTGTGGGGGEYPLQDGFGWTNGVTLKMLDLICPKEQPCDNVPATRPTVKSATTQPSTKEAQPTPLEHHHHHH	soluble
MGSDKIHHHHHHMPKVLHVADVHLGARPYGLEERRDDIFRSFEFVVETALKDRPDAVLIAGDLFDKPKLPLRDVKQAVELVRALTDAGIPVLAAHGEHDTPSVRDETLLSLMEASLDGFKAPLYRSGMRPGDFVVDLGSLKVAVVPFFKVPLEERRRLTLRFLREFDQISRTSSGTLVLLAHMSLDAEMQFDAVASPSDLPSGAKYAALGHLHAPRIRLDAPTPYAYPGVLDPLKVEEINTPGSPLYVDLSGDAPIIEKVKVPRRPQYRIEVDIGDGGSIYNAVNRGLRRVLANVRASREDWLKPLIHVIIKSDKPISKARVIAEARKAAGGADVLLKIHWKIVAGGEHAGTSPGLQGEGPLDLAKIAAEYYKIPLNAASTILHDLAEAAAEKDELRVREILETLATTVSQDTWKRILYMR	not soluble
MPLRQDLTPVVITVTGADRHGVTAATFRVLSANNVQILDVEQSKFRGFLSIAVYAGIKASMIDSVEQGLRDTLSVHGQSVSLSVESRTEVSRPRSTHVVVILGNPVGAEDIWKIGQTMADFGANIDGIRGISDYPVTGLELRVTVADPAPGAAEPLRKALAALTTELGVDIVIERAGLQR	not soluble
MSLKLQASNVTNKNDPKSINSRVFIGNLNTALVKKSDVETIFSKYGRVAGCSVHKGYAFVQYSNERHARAAVLGENGRVLAGQTLDINMAGEPKPDR	soluble
MGSDKIHHHHHHLKQLLLDIQPPAAPSLDNFVTGRNAEALFQLRRTVLEHDDARFIYLWGETGCGKTHLIQACNALASASGLDMICVDDVHLLSNDDQVALFDLYNQLRESGGRLIVSGLAAPSQMGLRDDLATRLAWGLSYQLHPLSDEEKTQALKNHAEARGMKLPDEVLDYCLRHLRRDMPSLIATIDALDEWSLISKRAVTLPLLKQLLQTST	not soluble
MGSDKIHHHHHHMSNLQKVIVFGASGFLGEHIIKSLISENWDVYAAVRTKPESSTDGFNQTQVTYYEGDLEDQKYIQDAIAGMDAIIFSAGCTWKSDLEISEYYRRNVQITKNFFTALGDRPNVRIVYTSSMSVIAGSKSDYIFFEDSDRSQVSQNQLSPYDLAKIECEQIALDYAQRGNNLVILNPGNMLGPGVFNHSKITTSILVLWFCQKQFPFYINGGHSYCDVRDVAKAHVAALTRGRSGERYIVAGDNLDMASISSLLVKMTGFKMPQQLPASGVYLLSLLLESLSLLSFRLFKNPYHPDFVKSFALHYYANSQKAIKELAYNITPIETTLIDTIKYFGKRELLSEDLNFFALMTHSNIQSLIYLRQLASQHTFSQFLLSKISQIYGICQSNLSLNNVLDNLVNHSKFNIKTGKFQPDKTKCQEDLKSINQLFEYLYFASNDFLSEVI	not soluble
PSGFPQNLHVTGLTTSTTELAWDPPVLAERNGRIISYTVVFRDINSQQELQNITTDTRFTLTGLKPDTTYDIKVRAWTSKGSGPLSPSIQSRTMPV	soluble
MGIYEAIQATIKEAMKARDERTLAFARVVKAELDRKGDGKPLPDEEAVKVLKALKEIALEQGNAFEAEFLDRFLPKEMSEEELEAWIREHVDLSQFKNPLAAIGVVTKALGPKAPGEKVRKVIERLTR	soluble
